± gives the uncertainty stated by the source.
assay: amyloid nucleation score (Sup35N fusion, yeast selection) (log enrichment); library NNK3; higher = more nucleation; inactive = no reads after selection
Outline: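 Yeast lacking psi expressed peptides of 20 random codons fused to Sup35N, received 100 μM copper sulfate for 24 hours, and were then grown for 7 days at 30°C on medium lacking adenine and uracil. Illumina sequencing of input and output plasmid inserts provided the reads. Nucleation scores are DiMSum log enrichments of output over input, centred on the mode of non-aggregating sequences. Any sequence with under 100 input reads was excluded.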

Substance	amyloid nucleation score
KMTFSWSLHHYCKP	1.08 ± 0.19
KNLKSVSFGRRYAFNSFVFL	1.25 ± 0.11
KNPTILAFSLGVRGETNRCV	inactive
KNWYKVMSRYYKC	0.338 ± 0.38
KPNFEPSLAW	inactive
KPVFYGPIRCFISVCI	1.84 ± 0.09
KQGPWVDTVTVMKTFRMSIN	inactive
KQSLSMVWRKSDLALKVMVG	0.904 ± 0.15
KQVTVNTLMSPPVRYL	inactive
KRDLSVIGKCTLNNVSNHCA	inactive
KRFHMYVHGSDMEVLLAGKC	inactive
KRGNSANPS	inactive
KRLTMDLFDNCPMLYECEFT	inactive
KRLVGLYIYTGMWLKLLQLV	inactive
KRSNISV	inactive
KRTQDCMDRPRMLAAKASPS	inactive
KRWTQINYFDWRLLRFATRS	inactive
KRYLGLMQRDVWISDAKLSA	inactive
KRYMIPKIYERNENYSFEQI	inactive
KRYNNIAYFVYLLFSLGVTT	inactive
KSASKVGLMKAYRNASRTVI	inactive
KSCLGKRLISSFC	inactive
KSESEGFNNSIRPWCMFCVS	inactive

Substance	amyloid nucleation score
KSFSHGLFDLRGKRTVEICL	inactive
KSGRSCYIFVYMWQLTVYSG	inactive
KSLHTGGGLDSRYGS	inactive
KSNSSLTRRARYETSTSSSP	inactive
KSNYEGTFGRHVLGPLKNKW	-0.463 ± 1.8
KSRTIQECMAATYVSVFECF	inactive
KSYISVRK	0.57 ± 0.18
KTASRCLYCLMKKKDCLPRV	inactive
KTIFSDVFYLRALWCSLNRG	inactive
KTISC	inactive
KTKFVTSLNFTVHFKCWNCD	1.51 ± 0.097
KTMDPILQFFERSTASLLLI	inactive
KTWYWVFMLAVFRFIYLNMR	inactive
KTYFRHTVRNTSSV	1.52 ± 0.11
KVADSVIEFMLTCWGIRQDS	inactive
KVFFVRTIIKVRVAGCSVRV	inactive
KVGSKVLEIFINTHYNWYCR	0.145 ± 0.53
KVIDSLVVSRLLTCASRHIR	1.32 ± 0.077
KVLASCLSHFVDPNLEVSFH	inactive
KVLVFGFQCFIL	1.56 ± 0.08
KVSMYRVVWCPASFGVIIVA	inactive
KVVARYRRKVCYNWHISEEK	inactive
KVYRKKPIGYVECLLSPLKA	inactive

Substance	amyloid nucleation score
KWGSATTCFI	0.067 ± 0.31
KWNNCDF	inactive
KWRYLFDMSW	inactive
KWSKILAPFILFLKLKSNCS	inactive
KWSNQGRCEHSVNMFHREWR	1.64 ± 0.09
KYFPVAQYGRIWVRRPRGQV	inactive
KYFRARYHSPSEWLWSMIDW	inactive
KYLGMMVKNANMLALCYAGW	-0.279 ± 0.68
KYLVALVRVRQSNLHS	inactive
KYRPLKSCAHVMRDSIKSGC	inactive
KYRQIMNGFKFSRANSFVTV	inactive
KYVLSKI	inactive
KYWICVFFVMIRDPIAYWDD	inactive
LADNYVTCKS	inactive
LAEGYVSVIRIYKRGWNEDV	inactive
LAGTTSASWGGS	inactive
LAKCVSVHSIYIHDSICPVG	inactive
LALLTAADARD	inactive
LALWFRGPLLLLSSLI	inactive
LARDYSFATHSGLRRKSLKQ	inactive
LARMTCYSDCGSNRGLRRVG	inactive
LASPVNETDTLHRALQMLSK	inactive
LAWIVCDCIGQCCTFIVRVW	inactive

Substance	amyloid nucleation score
LCALP	inactive
LCCFCCDPHLR	2.64 ± 0.061
LCFNLYMFCSYVCGMAIKSL	inactive
LCGDYGV	inactive
LCHICDAVTSYLLP	-0.406 ± 1
LCKDLDTSCVGSFYIFRQKG	inactive
LCLRSVRLCGKAYSINDRRH	inactive
LCVPTSDRELGYRWFRAEWH	inactive
LDACILRFARCLEGVDYADK	inactive
LDDEVEQSTAASDIRLLSTL	inactive
LDEGPPSAWVFATKTNFCES	inactive
LDFSPWKFSTVGSRSSGMNG	inactive
LDILTDAFQLLCNKKHNNKP	inactive
LDKEFAYIYSYC	inactive
LDLFVV	inactive
LDLLSAVGGVQRLIIHCCWM	inactive
LDNDSWTRGLRGYLTYLRER	inactive
LDNISVLIIFL	1.34 ± 0.11
LDPEP	inactive
LDRVSTVGSKNLFQRCCKIS	inactive
LDVSLVVVMPIGLRTEWMSG	inactive
LDVVYRDIIDFRVLVESVYF	inactive
LDWDFGHDRVRFPERHT	inactive

Substance	amyloid nucleation score
LDWLICSWGN	inactive
LEALSLDVNDVVRQYSNSEG	inactive
LELGIYHLMERGIL	inactive
LELVRG	inactive
LEQYEKLRGSPKVNRRMCNQ	inactive
LERTNWCQYHL	inactive
LERVSVSTQYLRLHLDLNSF	inactive
LFCCPDLFRRG	2.4 ± 0.09
LFCIWSSVLVRVHVFQKW	inactive
LFDFYRNSVTD	inactive
LFEGDQDGMRVCSHHMVFMI	inactive
LFFCNCCYGICS	2.4 ± 0.079
LFFFMALRVGLPNNTNMGMK	inactive
LFFMIVFSLYEFVMCFSSTR	inactive
LFFSNT	inactive
LFFYYMNSDLVR	inactive
LFGTFYPFSTTRFNVVKPDG	inactive
LFISFIVLRKALFTYTCLCF	inactive
LFKMPCLILVWPDSMFATSL	inactive
LFLIGLLGRCDGDFYCIYYT	1.04 ± 0.21
LFLISG	inactive
LFRGRCAPLFSQSVA	inactive
LFRLKNRFEDKVGNSIRLWE	inactive

Substance	amyloid nucleation score
LFTACNLKIDVLLSTRSFAL	1.6 ± 0.079
LFTELGSILF	inactive
LFTLWVMRFEFWYSCFFVSV	inactive
LFVASLTTCIFWA	2.4 ± 0.054
LFVIKGENNSEEYTNVNFWR	0.389 ± 0.23
LFVIVMSFLFGWFFYRNNYA	1.84 ± 0.099
LFVMSLFGHLGLQIYRCLAL	inactive
LFVMVQLCQL	0.797 ± 0.13
LGAAASSGRPMLTKYHLFWA	inactive
LGAVCVQMKKIDLSKTLETR	inactive
LGESMGRHVKRNKSAPERGM	inactive
LGFSVYSLA	inactive
LGGKDSASILIVPWTILSGL	inactive
LGGLCL	inactive
LGIIH	inactive
LGMIHFVFMYFETYCYTYTI	inactive
LGMVYICYYISVIVDPYSYS	0.246 ± 0.25
LGNSFLE	-0.445 ± 0.84
LGRYWHVIKLDLVPHMKWCE	inactive
LGSLVLLRFWY	-0.181 ± 1.4
LGTPYMDMRG	1.29 ± 0.15
LGVPSIPGT	inactive
LGVTGINSVIYMYEMVS	inactive

Substance	amyloid nucleation score
LGWLVGSGKVNRVRPGSLNS	inactive
LHCLEFSCVRHSVRY	2.14 ± 0.073
LHCPISYLAMSKKS	inactive
LHLHFAIKKLGLRLSTKWWV	inactive
LHPLYRFSANSSKDLFTSRL	inactive
LHPYHYIWKMAHL	inactive
LIDSADWRCVMVVIRLGRCR	inactive
LIFCNATGFTYRWPLTWVVM	inactive
LIFFWSIEA	inactive
LIFTTTRSLFTALPGFEYKD	inactive
LIISFKYCFPWKVVSTSVYN	1.17 ± 0.17
LIKSSRLCLNRWEWAAGSGM	inactive
LILAMSRLALWSL	inactive
LILYIVAISCSSARSLLRVG	inactive
LINKHNRVMYLAICA	inactive
LINKLENLIYSG	inactive
LINSNVNTVSLFIPFSRMED	1.58 ± 0.1
LIRMQVGLLGV	inactive
LISLPVG	-0.254 ± 0.7
LITKWKWEFANTQWRSGQKG	1.36 ± 0.15
LIVLVMHKLYKLWSGRLRVV	inactive
LIYILWH	inactive

— the supplement of paper PMC12042874
